Measurements taken from US20260000736A1, “PURIFIED LACTOFERRIN COMPOSITIONS AND METHODS OF USE” (Lactea Therapeutics LLC, priority 2023, published 2026).
Several values for one entry are separate records, joined by “and”; a condition that tells them apart may be missing. Equal values may be shown once.

Columns and labels:
[1] = tested on: Salivary bacteria (including Lactobacillus, Lactococcus, and Streptococcus mutans); experiment: Salivary bacteria acid production, pH over time; assay type: cell-based; details: in the presence of sucrose, entire 6 hour testing period
Description: Salivary bacteria (including Lactobacillus, Lactococcus, and Streptococcus mutans) produce acid during growth. This acidification is strongly associated with tooth decay, particularly when it results in pH below 5.5, which is a clinically relevant threshold. A slurry of these bacteria were treated with sucrose to stimulate growth, as well as varying concentrations of API-E2 lactoferrin. Upon the addition of sucrose and API-E2 lactoferrin, the pH was adjusted to 7 through a titration and the change in pH was subsequently monitored over the next 6 hours.

[2] = assay type: binding; details: ITC, Lf 5 mg/mL in 100 mM MOPS buffer pH 7, HS approximately 100 µM
[3] = ITC-based assay, binding to LPS
[4] = DSC of additional batches, ratio of apo to holo-Lactoferrin; assay type: physicochemical; details: 5 mg/mL, 30° C. to 100° C. range
Description: Additional batches of Lactea-Lf as described in the above examples and the relative ratio of apo to holo-Lactoferrin was assessed by Differential Scanning Calorimetry (DSC). Lactoferrin samples were loaded at 5 mg/mL into a NanoDSC (TI Instruments) and measured in the 30° C. to 100° C. range. […] It is likely that these peaks are smaller as the sample is highly impure or contains already denatured product.

[5] = Differential Scanning Calorimetry (DSC) of apolactoferrin and hololactoferrin forms; assay type: physicochemical; details: 10 mg/mL
Description: Di[…] Calorimetry (DSC) was used to assess the hololactoferrin and apolactoferrin forms through monitoring unfolding temperatures of lactoferrin samples using a nanoDSC (TA Instruments, Lindon, UT) according to standard DSC protocols known to those of skill in the art (e.g., see Hinz et al “M[…] […] OF […] ON […] DI[…] CALORIMETRY”; herein incorporated by reference for all purposes.
API-E2 Lactoferrin (10 mg/mL), produced as described herein, was assessed by DSC. […] The lack of other peaks indicates the lack of contaminants and impurities and can assess API-E2 as ˜100%. […] Additionally, the lack of other peaks also indicated the purity of API-E2 Lactoferrin. […] The API-E2 hololactoferrin peak has a Tm of 88.38+/−0.8 C and a delta H of 632.7+/−7.2 kJ/mol. The hololactoferrin natively accounted for on average 8.74+/−1.39% of the total API-E2 lactoferrin with apolactoferrin accounting for the rest in the samples tested. However, the hololactoferrin percentage can be naturally variable. The API-E2 was calculated by this technique to contain virtually 100% pure lactoferrin.
The assay was also performed with heat-treated API-E2 Lactoferrin. API-E2 Lactoferrin was heated across a range of 50-100° C.
Lab-grade standard lactoferrin and a commercially available supplement-grade lactoferrin were also assessed by DSC under the conditions used to assess API-E2 above.

[6] = tested on: cow with a large infected chronic wound on its leg; experiment: Case study of a cow with a large infected chronic wound; assay type: in vivo; details: three daily treatments as freeze dried powder into the wound bed
Description: Lactea Lactoferrin (Lactea-Lf) was produced as described in the above examples and freeze-dried by lyophilization into a powder. Lactea-Lf was then administered as the freeze-dried powder in a variety of animal wound contexts.
For these daily treatments, Lf was applied once on each day to cover the open wound area.

E. coli 0157 = experiment: Biofilm formation, crystal violet assay; assay type: cell-based; details: for Biofilm Inhibition, Replicate 1 / Biofilm Inhibition, Replicate 2 / Biofilm Inhibition, Replicate 3: 24 hours
Description: Lactoferrin was assessed for biofilm growth inhibition. To study the relative concentration dependent efficacy of Lactea-Lf and the Sigma Aldrich research standard Lactoferrin in inhibiting biofilm formation, Lf was added at concentrations ranging from 2 mg/mL to 0.31 mg/mL (2-fold serial dilution curve) to E. coli 0157 in LB seeded at 10∝CFU/mL and incubated for 37° C. for 24 hours. Lactea Lactoferrin (Lactea-Lf) was produced as described in the above examples. The biofilm was stained using a standard crystal violet assay. A quantification of the inhibition of biofilm formation (FIG. 18A) and an image of a representative plate (FIG. 18B) are shown.

[7] = tested on: Staphylococcus epidermidis; experiment: Planktonic growth in culture, OD600; assay type: cell-based; details: 10-fold serial dilution of Lf, 18 hours
[8] = tested on: Extra-Cellular Matrix (ECM) of Caco-2 cells; experiment: Lactoferrin enrichment at the ECM by immunofluorescent imaging in Caco-2 cells; assay type: cell-based, human; details: varying concentrations, 37° C. for two hours
Description: To assess bioactivity of Lactoferrin, particularly for its potential as an antiviral, binding to the ECM was assessed. Purified Lactoferrin was produced according to Example 1. Caco-2 cells, a human-derived cell culture, cells were allowed to grow for three days after plating on a coverslip such that the cells could proliferate, and the ECM could fully develop. Purified Lactoferrin was then added to the cells at varying concentrations at 37° C. for two hours to allow it to bind as theorized. To directly observe the localization of the API we used Immunofluorescent (IF) imaging and stained both the API and E-cadherin, a cell membrane marker.
Primary localization internally was also observed at low concentrations, but given Lactoferrin has known intracellular roles and a receptor allowing for its uptake, fractional localization of Lactoferrin to the intracellular space was expected. To quantify the localization of the API, the absolute intensity of the fluorescent signal both just outside/along the E-cadherin mark as well as inside the cell was measured.

B1: Lactea-Lf: bovine lactoferrin purified from raw untreated milk by cation exchange chromatography and filtration according to Example 1 (protein)
chain: APRKNVRWCTISQPEWFKCRRWQWRMKKLGAPSITCVRRAFALECIRAIAEKKADAVTLDGGMVFEAGRDPYKLRPVAAEIYGTKESPQTHYYAVAVVKKGSNFQLDQLQGRKSCHTGLGRSAGWVIPMGILRPYLSWTESLEPLQGAVAKFFSASCVPCIDRQAYPNLCQLCKGEGENQCACSSREPYFGYSGAFKCLQDGAGDVAFVKETTVFENLPEKADRDQYELLCLNNSRAPVDAFKECHLAQVPSHAVVARSVDGKEDLIWKLLSKAQEKFGKNKSRSFQLFGSPPGQRDLLFKDSALGFLRIPSKVDSALYLGSRYLTTLKNLRETAEEVKARYTRVVWCAVGPEEQKKCQQWSQQSGQNVTCATASTTDDCIVLVLKGEADALNLDGGYIYTAGKCGLVPVLAENRKTSKYSSLDCVLRPTEGYLAVAVVKKANEGLTWNSLKDKKSCHTAVDRTAGWNIPMGLIVNQTGSCAFDEFFSQSCAPGRDPKSRLCALCAGDDQGLDKCVPNSKEKYYGYTGAFRCLAEDVGDVAFVKNDTVWENTNGESTADWAKNLNREDFRLLCLDGTRKPVTEAQSCHLAVAPNHAVVSRSDRAAHVKQVLLHQQALFGKNGKNCPDKFCLFKSETKNLLFNDNTECLAKLGGRPTYEEYLGTEYVTAIANLKKCSTSPLLEACAFLTR
[1]; 1 mg/mL
  pH of salivary bacteria slurry: above 5.5
[1]; 10 mg/mL
  pH of salivary bacteria slurry: above 5.5
[2]
  binding to Heparan Sulfate: far greater binding to Heparan Sulfate than the research standard
[3]
  binding to LPS: binds to LPS
  competition of LPS binding with HS binding: competitive with HS binding
[4]
  denaturation peak corresponding to apo-Lf: ~60 °C
  denaturation peak corresponding to holo-Lf: 90 °C
  relative ratio of apo to holo-Lactoferrin, DSC peak pattern: heavily skewed towards apo-Lf
[5]
  % of Total, Apolactoferrin: 91.26 +/− 1.39%
[5]; listed as API-E2
  % of Total, Hololactoferrin: 8.74+/−1.39%
  Delta H, Apolactoferrin peak: 466.1 ± 9.2 kJ/mol
  Delta H, Hololactoferrin peak: 632.7 ± 7.2 kJ/mol
  Tm, Apolactoferrin peak: 60.2+/−0.8 C and 60.2 +/− .8 C
  Tm, Hololactoferrin peak: 88.38+/−0.8 C and 88.38 +/− .8 C
[6]
  healing of infected chronic wound: the wound was completely healed after it was checked after three weeks
E. coli 0157; E. coli 0157, 24 hours
  concentrations at which potent biofilm inhibition is seen: ≥ 100 µg/mL
E. coli 0157; [Lf] 0.031 mg/mL
  Biofilm Inhibition, Replicate 1: 0.6591
  Biofilm Inhibition, Replicate 2: 0.8959
  Biofilm Inhibition, Replicate 3: 0.7811
E. coli 0157; [Lf] 0.063 mg/mL
  Biofilm Inhibition, Replicate 1: 0.1874
  Biofilm Inhibition, Replicate 2: 0.1722
  Biofilm Inhibition, Replicate 3: 0.2125
E. coli 0157; [Lf] 0.125 mg/mL
  Biofilm Inhibition, Replicate 1: 0.03395
  Biofilm Inhibition, Replicate 2: 0.1076
  Biofilm Inhibition, Replicate 3: 0.0806
E. coli 0157; [Lf] 0.25 mg/mL
  Biofilm Inhibition, Replicate 1: 0.04609
  Biofilm Inhibition, Replicate 2: 0.07314
  Biofilm Inhibition, Replicate 3: 0.07011
E. coli 0157; [Lf] 0.5 mg/mL
  Biofilm Inhibition, Replicate 1: 0.04858
  Biofilm Inhibition, Replicate 2: 0.0748
  Biofilm Inhibition, Replicate 3: 0.08915
E. coli 0157; [Lf] 1 mg/mL
  Biofilm Inhibition, Replicate 1: 0.02346
  Biofilm Inhibition, Replicate 2: 0.09274
  Biofilm Inhibition, Replicate 3: 0.02898
E. coli 0157; [Lf] 2 mg/mL
  Biofilm Inhibition, Replicate 1: 0.006072
  Biofilm Inhibition, Replicate 2: 0.01601
  Biofilm Inhibition, Replicate 3: −0.01297
[7]
  Inhibition of Planktonic Growth: None
[8]
  Lactoferrin localization at the ECM (IF imaging): enrichment at the ECM was observed as concentration increased
